T1: IL-18/IL-18BP complex (human, UniProt Q14116 37-193)
T1 construct: Non-covalent 1:1 complex; In the third screening step IL-18BP was linked to Luminex beads and then complexed to IL-18; also called IL-18 previously complexed to IL-18BP; complex IL-18-IL-18BP
T1 sequence 1: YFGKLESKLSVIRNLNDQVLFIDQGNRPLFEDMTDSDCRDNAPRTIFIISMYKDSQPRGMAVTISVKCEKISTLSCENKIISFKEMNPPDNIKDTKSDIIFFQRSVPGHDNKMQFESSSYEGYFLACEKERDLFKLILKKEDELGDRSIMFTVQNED
T1 sequence 2: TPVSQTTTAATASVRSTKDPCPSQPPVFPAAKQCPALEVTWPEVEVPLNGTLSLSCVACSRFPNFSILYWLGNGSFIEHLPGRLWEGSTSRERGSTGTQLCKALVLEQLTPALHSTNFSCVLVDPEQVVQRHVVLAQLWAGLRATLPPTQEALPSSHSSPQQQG

T2: recombinant human interleukin-18 (human, UniProt Q14116 37-193)
T2 construct: Commercially available recombinant human IL-18; also called IL-18; free IL-18
T2 sequence (looked up): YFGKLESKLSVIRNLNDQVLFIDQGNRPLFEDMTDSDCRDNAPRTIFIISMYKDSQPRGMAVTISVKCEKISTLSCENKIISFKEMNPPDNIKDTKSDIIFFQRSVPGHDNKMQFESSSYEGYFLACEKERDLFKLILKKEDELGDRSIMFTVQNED

B1: Antibody 107C6 (antibody, V domains shown)
VH: QIQLVQSGPELKKPGETVKLSCRASGYTFTNYGMNWVKQAPGKGLKWMGWINTYSGVPTYADDFKGQFAFSLETSAATAFLQINNLKDEDTATYFCAREGYSTTRSMDYWGQGTSVTVSS
VL: DIVMSQSPSSLAVSAGEKVTMSCKSSQSLLDSRTRKNYLVWYQQKPGQSPKLLIYWASTRGSGVPDRFTGSGSGTDFTLTISSVQAEDLAVYYCKQSYNLRTFGGGTKLEIK
notes: Mouse hybridoma monoclonal antibody; also called clone #107C6
B2: Antibody 108F8 (antibody, V domains shown)
VH: QIQLVQSGPDSKKPGETVKLSCRASGYTFTNYGMNWVKQAPGKGLKWMGWINTYSGVPTYADDFKGQFAFSLETSAATAFLQINNLKDEDTATYFCAREGYSTTRSMDYWGQGTSVTVSS
VL: DIVMSQSPSSLAVSAGEKVTMSCKSSQSLLDSRTRKNYLVWYQQKPGQSPKLLIYWASTRGSGVPDRFTGSGSGTDFTLTISSVQAEDLAVYYCKQSYNLRTFGGGTKLEIK
notes: Mouse hybridoma monoclonal antibody
B3: recombinant human IL-18 Binding Protein (r-hIL-18BP), isoform a (other)
chain: TPVSQTTTAATASVRSTKDPCPSQPPVFPAAKQCPALEVTWPEVEVPLNGTLSLSCVACSRFPNFSILYWLGNGSFIEHLPGRLWEGSTSRERGSTGTQLCKALVLEQLTPALHSTNFSCVLVDPEQVVQRHVVLAQLWAGLRATLPPTQEALPSSHSSPQQQG
notes: It was biotinylated in the second screening step and linked to Luminex beads in the third; also called human IL-18BP; IL-18BPa
B4: Antibody 132H4 (antibody, V domains shown)
VH: EVKLVESGGGLVKPGGSLKLSCAASGFTFSNYAMSWVRQNPAKRLEWVATISSGGANIYYPDSVKGRFIISRDNARNTLYLQMSSLRSEDTAMYYCARGDYFNHFWFAYWGQGTLVTVSA
VL: DVLMTQTPLSLPVSLGDQASISCRSSQSIVHSNGNTYLEWYLQKPGQSPKFLIYKVSNRFSGVPDRFSGSGSGTDFTLKINRVEAEDLGIYYCFQGSHVPWTFGGGTKLEIK
notes: as for B2
B5: Antibody 109A6 (antibody, V domains shown)
VH: EVQLQQSGAELVKPGASVKLSCTASGFKIKDTYIHWVIQRPAQGLEWIGRIDPANGNTIYGSKFQGKATLTADTSSNTAYIHLSSLTSGDSAVYYCAGYVWFAYWGQGTLVTVSA
VL: DVVMTQVPLSLPVSLGDQASISCRSSQRLVHSNGNTYLHWFLQKPGQSPKLLIYTVSNRFSGVPDRFSGSGSGTDFTLKISRVEAEDLGVYFCSQSTLVPWTFGGGTKLEIK
notes: as for B2
B6: Antibody 131B4-2 (antibody, V domains shown)
VH: EVQLQQSGAELVKPGASVKLSCTASGFKIKDTYIHWLKQRPEQGLEWIGRIDPANGNTIYGSKFQGKATITADTSSNTAYIQLSSLTSGDTAVYFCAGYVWFAYWGQGTLVTVSA
VL: DAVLTQTPLSLPVSLGDQASISCTSSQSLVHSNGNTYLHWYLQKPGQSPKLLIYKVSDRFSGVPDRFSGSGSGTDFTLMITRVEAEDLGVYFCSQSSLVPWTFGGGTKLEVK
notes: Mouse monoclonal antibody obtained on clone dilution

Legend:
[1] = target: T1, IL-18/IL-18BP complex; assay: Luminex, third screening against first screening
[2] = target: T2, recombinant human interleukin-18; assay: Luminex, antibody on IL-18 beads
Method: Following immunization, B cells were isolated from spleen and hybridized following standard hybridoma technology. […] The screening was performed in 3 sequential and selective steps: [1253] First step. […] [1254] Second step. […] For this, monoclonal antibodies were bound to Luminex beads carrying IL-18. […] [1255] Third step.

[3] = target: T2, recombinant human interleukin-18; assay: titration of antibody with a defined IL-18 molarity; KD from EC50 by Law of Mass Action; mean
Method: (§1) The respective KD values of each monoclonal antibody was calculated following titration of the antibodies with a defined IL-18 molarity and derived from the obtained EC₅₀ values with the Law of Mass Action (see above).

[4] = target: T1, IL-18/IL-18BP complex; assay: Luminex, antibody on IL-18 presented by IL-18BP-linked beads
[5] = target: T2, recombinant human interleukin-18; assay: titration of antibody with a defined IL-18 molarity; KD from EC50 by Law of Mass Action
Method: as §1

[6] = target: T2, recombinant human interleukin-18; assay: Luminex, biotinylated IL-18BP (competitor) on IL-18 beads pre-complexed with the antibody
[7] = target: T2, recombinant human interleukin-18; assay: competition in solution: 400 pg/ml IL-18 spiked with rising IL-18BP; remaining free IL-18 detected by ELISA with plate-bound IL-18BP as capture
[8] = target: T2, recombinant human interleukin-18; assay: free IL-18 ELISA (IL-18BP-coated plate); 400 pg/mL IL-18 in PBS/5% BSA spiked with 0-10000 pg/mL IL-18BP
Method: A description of the purification protocol is provided in section 6.6.2. Plates are incubated for a period of time at 4° C. and then stabilized with a blocking buffer containing bovine serum albumin or other appropriate blocking agents. Once the reaction is finished, microplates are sealed and stored at 4° C. until used for detection of free IL-18. Microplates can also be dried in a stabilizing solution allowing storage at room temperature and then be reconstituted by hydration when needed for assay.

[9] = target: T2, recombinant human interleukin-18; assay: after clone dilution; method not detailed

Binder	fold inhibition of binding on IL-18 complexed to IL-18BP against binding on IL-18 [1]	Fluorescence intensity [2]	Kd [3]	Fluorescence intensity [4]	Kd [5]	Fluorescence intensity of IL-18BP binding [6]	IC50 (read off the curve) [7]	molar ratio IL-18BP/IL-18 at which free IL-18 is near background [8]	binding result [9]
B1	> 500 fold	26200 fluorescence intensity	< 2 pM	33 fluorescence intensity	< 2 pM	1390 fluorescence intensity	–	–	–
B2	> 500 fold	25100 fluorescence intensity	< 2 pM	45 fluorescence intensity	< 2 pM	1290 fluorescence intensity	–	–	–
B3	–	–	–	–	–	–	~2 ng/mL	~15 fold	–
B4	> 500 fold	23800 fluorescence intensity	5 pM	28 fluorescence intensity	5 pM	1490 fluorescence intensity	–	–	–
B5	> 500 fold	25800 fluorescence intensity	10 pM	33 fluorescence intensity	10 pM	913 fluorescence intensity	–	–	–
B6	–	–	–	–	–	–	–	–	binds

From patent publication US20210188968A1 (AB2 BIO, published 2021)
